Laboratory results published in patent publication US20190002587A1 (AROCELL, published 2019).
Where no end group is shown, it is not given here.

T1: AARKLFAPQQ (human, also: biotinylated, position not given here)
T1 peptide: AARKLFAPQQ

T2: ASGQPAGPDN (human, also: biotinylated, position not given here)
T2 peptide: ASGQPAGPDN

T3: KPGEAVAARK (human, also: biotinylated)
T3 peptide: KPGEAVAARK

T4: KENCPVPGKP (human, also: biotinylated)
T4 peptide: KENCPVPGKP

T5: XPA 210 peptide (human, immobilized on streptavidin coated plate (biotinylated) in the Pepscan)
T5 construct: also called 31-mer; 31-mer peptide
T5 peptide: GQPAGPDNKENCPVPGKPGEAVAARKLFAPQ

T6: NCPVPGKPGE (human, also: biotinylated)
T6 construct: also called peptide 7
T6 peptide: NCPVPGKPGE

T7: DNKENCPVPG (human, also: biotinylated)
T7 peptide: DNKENCPVPG

T8: PGKPGEAVAA (human, also: biotinylated)
T8 peptide: PGKPGEAVAA

T9: GPDNKENCPV (human, also: biotinylated)
T9 peptide: GPDNKENCPV

T10: GEAVAARKLF (human, also: biotinylated)
T10 construct: also called 10-mer; 10-mer peptide
T10 peptide: GEAVAARKLF

T11: PAGPDNKENC (human, also: biotinylated)
T11 peptide: PAGPDNKENC

T12: AVAARKLFAP (human, also: biotinylated)
T12 peptide: AVAARKLFAP

T13: ARKLFAPQQI (human, also: biotinylated, position not given here)
T13 peptide: ARKLFAPQQI

T14: GQPAGPDNKE (human, also: biotinylated)
T14 peptide: GQPAGPDNKE

T15: PVPGKPGEAV (human, also: biotinylated)
T15 construct: also called peptide 8
T15 peptide: PVPGKPGEAV

T16: human recombinant TK1 (human, UniProt P04183 1-234, limits assumed)
T16 construct: also called human rTK1; rTK1
T16 sequence (looked up): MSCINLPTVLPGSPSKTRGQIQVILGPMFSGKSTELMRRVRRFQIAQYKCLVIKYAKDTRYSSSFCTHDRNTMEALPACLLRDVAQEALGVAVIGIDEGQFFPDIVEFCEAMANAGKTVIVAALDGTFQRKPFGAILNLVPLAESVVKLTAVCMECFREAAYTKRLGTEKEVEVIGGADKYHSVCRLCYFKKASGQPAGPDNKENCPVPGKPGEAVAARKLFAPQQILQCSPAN

B1: XPA 210-Ar3 (antibody, V domains shown)
VH: DVQLQESGPDLVKPSQSLSLTCTVTGYSITSGYSWHWIRQFPGNKLEWLGYIHYSGSTTYNPSLKGRISITRDTSKNQFFLQLNSVTTEDTATYYCARWGTGHWYFDVWAAGTTVTVSS
VL: QAVVTQESALTTSPGKTVTLTCRSSTGAVTTTNYANWVQEKPDHLFTGLIGGTNNRVPGVPARFSGSLIGDKAALTITGAQTEDEAIYFCALWYSNHWVFGGGTKLTVL
notes: Mouse monoclonal from hybridoma; also called Sup-165
B2: XPA 210-Ar1 (antibody, V domains shown)
VH: QVQLQQSGAELVRPGASMKLSCKALGYTLTDYEMHWVKQTPAHGLEWIGAIHPGYGGTAYNQKFKGKATLTADKSSSTAYMELSSLTSEDSAVYYCTTFITKFDYWGQGTTLTVSS
VL: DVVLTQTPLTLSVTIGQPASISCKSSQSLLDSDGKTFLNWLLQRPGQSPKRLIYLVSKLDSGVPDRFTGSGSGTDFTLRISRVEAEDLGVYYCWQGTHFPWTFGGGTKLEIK
notes: Mouse monoclonal from hybridoma; also called monoclonal antibody XPA 210-Ar1
B3: XPA 210-Ar2 (antibody, V domains shown)
VH: QVQLQQSGAELVRPGASVKLSCKALGYTFTDYEMHWVRQTPVHGLEWIGAILPGSGGTAYNQKFKGKATLTADKSSSTAYMELSSLTSEDSAVYYCTTLITTFDYWGQGTTLTVSS
VL: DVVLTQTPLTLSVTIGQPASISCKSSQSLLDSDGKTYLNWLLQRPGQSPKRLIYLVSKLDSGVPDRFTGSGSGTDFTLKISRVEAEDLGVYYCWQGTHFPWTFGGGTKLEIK
notes: Mouse monoclonal from hybridoma; also called Sup-162; XPA-Ar2

Key:
AARKLFAPQQ [1] = biological target: T1, AARKLFAPQQ; test: Pepscan ELISA, peptide on streptavidin plate
Description: (§1) In order to determine the amino acid region to which the selected monoclonal antibodies bind a Pepscan analysis with biotinylated 10 amino acid target peptides was carried out. The procedure is based on synthesis of a set of 14 ten-mer amino acid peptides representing the region from 193 to 226 of the TK1 sequence as shown in connection with Example 1. Each peptide has an eight amino acids overlap and two amino acids gaps, leading to a set of 14 different peptides, see Table 2. The entire full-length peptide is also included and all these peptides were immobilized on a streptavidine coated microtiter plate. After a 1 hour adsorption step the plates were washed with PBS, 1% BSA and 0.1% Tween 20. The different antibodies were then added at approximately 5 μg/ml and the plates were incubated for 1 hour, followed by washing three times. Then a HRP conjugate was added and incubated for 1 hour. The plates were then washed six times with the same buffer. Finally the absorbance was determined with 100 μl 3,3′,5,5′-tetramethylbenzidine (TMB) substrate and the results from one test with a series of antibodies are shown in Table 2.

ASGQPAGPDN [2] = biological target: T2, ASGQPAGPDN; test: Pepscan ELISA, peptide on streptavidin plate
Description: as §1

KPGEAVAARK [3] = biological target: T3, KPGEAVAARK; test: Pepscan ELISA, peptide on streptavidin plate
Description: as §1

KENCPVPGKP [4] = biological target: T4, KENCPVPGKP; test: Pepscan ELISA, peptide on streptavidin plate
Description: as §1

XPA 210 peptide = biological target: T5, XPA 210 peptide; test: Pepscan ELISA, peptide on streptavidin plate
Description: as §1

NCPVPGKPGE [5] = biological target: T6, NCPVPGKPGE; test: Pepscan ELISA, peptide on streptavidin plate
Description: as §1

DNKENCPVPG [6] = biological target: T7, DNKENCPVPG; test: Pepscan ELISA, peptide on streptavidin plate
Description: as §1

PGKPGEAVAA [7] = biological target: T8, PGKPGEAVAA; test: Pepscan ELISA, peptide on streptavidin plate
Description: as §1

GPDNKENCPV [8] = biological target: T9, GPDNKENCPV; test: Pepscan ELISA, peptide on streptavidin plate
Description: as §1

GEAVAARKLF [9] = biological target: T10, GEAVAARKLF; test: Pepscan ELISA, peptide on streptavidin plate
Description: as §1

PAGPDNKENC [10] = biological target: T11, PAGPDNKENC; test: Pepscan ELISA, peptide on streptavidin plate
Description: as §1

AVAARKLFAP [11] = biological target: T12, AVAARKLFAP; test: Pepscan ELISA, peptide on streptavidin plate
Description: as §1

ARKLFAPQQI [12] = biological target: T13, ARKLFAPQQI; test: Pepscan ELISA, peptide on streptavidin plate
Description: as §1

GQPAGPDNKE [13] = biological target: T14, GQPAGPDNKE; test: Pepscan ELISA, peptide on streptavidin plate
Description: as §1

PVPGKPGEAV [14] = biological target: T15, PVPGKPGEAV; test: Pepscan ELISA, peptide on streptavidin plate
Description: as §1

human recombinant TK1 [15] = biological target: T16, human recombinant TK1; test: Attana quartz crystal microbalance, antibody captured by anti-mouse IgG on the chip, recombinant TK1 injected at 20 to 1.25 ug/ml, 1:1 binding model
Description: (§2) In the experiment shown in FIGS. 8A and 8B an LNB Carboxyl sensor chip was used, which was pre-reacted with the Mouse IgG capture kit (Biacore, GE Healthcare) with the amine coupling procedure. The ligands were XPA 210-Ar1 and XPA 210-Ar2 and they were captured to the surface with anti-mouse antibodies by two injections of 50 μg/ml antibody solutions in a 10 mM acetate buffer pH 4.5. An identically treated chip without the capture antibody was used a negative control. Pure recombinant TK1, diluted to 20 μg/ml in 10 mM HEPES, 150 mM NaCl, 0.005% Tween 20, pH 7.4, was injected over the surface at 25 μl/min. The association time was 84 s and the dissociation was measured for another 300 s. Buffer without recombinant TK1 was injected as a blank and subtracted from the sample injection signals.
(§3) An 1:1 binding model was used for calculation of the kinetic constants from the fitted curves of the double reference data as shown in FIGS. 8A and 8B.

human recombinant TK1 [16] = biological target: T16, human recombinant TK1; test: Attana 200 quartz crystal microbalance biosensor, antibody captured by anti-mouse IgG, rTK1 injected, 1:1 model
Description: as §2, §3

AARKLFAPQQ [17] = biological target: T1, AARKLFAPQQ; test: Pepscan ELISA
Description: as §1

ASGQPAGPDN [18] = biological target: T2, ASGQPAGPDN; test: Pepscan ELISA
Description: as §1

KPGEAVAARK [19] = biological target: T3, KPGEAVAARK; test: Pepscan ELISA
Description: as §1

KENCPVPGKP [20] = biological target: T4, KENCPVPGKP; test: Pepscan ELISA
Description: as §1

NCPVPGKPGE [21] = biological target: T6, NCPVPGKPGE; test: Pepscan ELISA
Description: as §1

DNKENCPVPG [22] = biological target: T7, DNKENCPVPG; test: Pepscan ELISA
Description: as §1

PGKPGEAVAA [23] = biological target: T8, PGKPGEAVAA; test: Pepscan ELISA
Description: as §1

GPDNKENCPV [24] = biological target: T9, GPDNKENCPV; test: Pepscan ELISA
Description: as §1

GEAVAARKLF [25] = biological target: T10, GEAVAARKLF; test: Pepscan ELISA
Description: as §1

PAGPDNKENC [26] = biological target: T11, PAGPDNKENC; test: Pepscan ELISA
Description: as §1

AVAARKLFAP [27] = biological target: T12, AVAARKLFAP; test: Pepscan ELISA
Description: as §1

ARKLFAPQQI [28] = biological target: T13, ARKLFAPQQI; test: Pepscan ELISA
Description: as §1

GQPAGPDNKE [29] = biological target: T14, GQPAGPDNKE; test: Pepscan ELISA
Description: as §1

PVPGKPGEAV [30] = biological target: T15, PVPGKPGEAV; test: Pepscan ELISA
Description: as §1

Binder | absorbance at 415 nm (AARKLFAPQQ [1]) | absorbance at 415 nm (ASGQPAGPDN [2]) | absorbance at 415 nm (KPGEAVAARK [3]) | absorbance at 415 nm (KENCPVPGKP [4]) | absorbance at 415 nm (XPA 210 peptide) | absorbance at 415 nm (NCPVPGKPGE [5]) | absorbance at 415 nm (DNKENCPVPG [6]) | absorbance at 415 nm (PGKPGEAVAA [7]) | absorbance at 415 nm (GPDNKENCPV [8]) | absorbance at 415 nm (GEAVAARKLF [9]) | absorbance at 415 nm (PAGPDNKENC [10]) | absorbance at 415 nm (AVAARKLFAP [11]) | absorbance at 415 nm (ARKLFAPQQI [12]) | absorbance at 415 nm (GQPAGPDNKE [13]) | absorbance at 415 nm (PVPGKPGEAV [14]) | other results
B1 | 0.06 absorbance | 0.057 absorbance | 0.059 absorbance | 0.058 absorbance | 0.136 absorbance | 1.99 absorbance | 0.059 absorbance | 0.059 absorbance | 0.06 absorbance | 0.057 absorbance | 0.055 absorbance | 0.062 absorbance | 0.062 absorbance | 0.057 absorbance | 1.84 absorbance | –
B2 | 0.137 absorbance | 0.113 absorbance | 0.116 absorbance | 0.109 absorbance | 3.84 absorbance | 0.114 absorbance | 0.108 absorbance | 0.112 absorbance | 0.112 absorbance | 3.51 absorbance | 0.12 absorbance | 0.125 absorbance | 0.13 absorbance | 0.108 absorbance | 0.115 absorbance | koff (human recombinant TK1 [15]): 1.61e-05 s⁻¹; kon (human recombinant TK1 [15]): 24800 M⁻¹ s⁻¹; Kd (human recombinant TK1 [16]): 0.65 nM
B3 | 0.066 absorbance | 0.067 absorbance | 0.072 absorbance | 0.063 absorbance | 3.79 absorbance | 0.064 absorbance | 0.063 absorbance | 0.067 absorbance | 0.063 absorbance | 0.072 absorbance | 0.063 absorbance | 0.077 absorbance | 0.063 absorbance | 0.064 absorbance | 0.067 absorbance | binding result (AARKLFAPQQ [17]): no binding (tested: approximately 5 µg/ml); binding result (ASGQPAGPDN [18]): no binding (tested: approximately 5 µg/ml); binding result (KPGEAVAARK [19]): no binding (tested: approximately 5 µg/ml); binding result (KENCPVPGKP [20]): no binding (tested: approximately 5 µg/ml); binding result (NCPVPGKPGE [21]): no binding (tested: approximately 5 µg/ml); binding result (DNKENCPVPG [22]): no binding (tested: approximately 5 µg/ml); binding result (PGKPGEAVAA [23]): no binding (tested: approximately 5 µg/ml); binding result (GPDNKENCPV [24]): no binding (tested: approximately 5 µg/ml); binding result (GEAVAARKLF [25]): no binding (tested: approximately 5 µg/ml); binding result (PAGPDNKENC [26]): no binding (tested: approximately 5 µg/ml); binding result (AVAARKLFAP [27]): no binding (tested: approximately 5 µg/ml); binding result (ARKLFAPQQI [28]): no binding (tested: approximately 5 µg/ml); binding result (GQPAGPDNKE [29]): no binding (tested: approximately 5 µg/ml); binding result (PVPGKPGEAV [30]): no binding (tested: approximately 5 µg/ml)
